This note sets out measurements from the nanobody polyreactivity screen of Harvey et al. (2022).

The series is described as follows: yeast display, Sf9 membrane polyspecificity reagent, FACS + sequencing; frameworks hold sequencing errors. A digest of the protocol: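 A nanobody's polyreactivity label depends on the gate it was sorted from. Yeast display cells were stained with 10% biotinylated, detergent-solubilized Sf9 membrane reagent for 1 hour at 4 °C, enriched on streptavidin microbeads and sorted by FACS. The low and high (top ~1%) gates were set on anti-HA fluorescence for expression and streptavidin fluorescence for reagent binding.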
Regarding “QVQLVESRGGLVQAGGSLRLSCAASGFTFYKYAMGCYRQAPGKERELVAAITGSGGSTYYADSVKGRFTISRDNAKNTVYLQMNSLKPEDTAVYYCATRYPTYYGYHKFDYWGQGTQVTVSS”, the “polyreactivity (PSR sort gate)” value is “high polyreactivity”.

For “QVQLVESRGGLVQAGGSLRLSCAASGFTFYYYAMGWYRQAPGKERELVAAISGRGGSTYYADSVKGRFTISRDNAKNSVYLQMNSLKPEDTAVYYCAAVPIVRLEYWGQGTQVTVSS”, the “polyreactivity (PSR sort gate)” value is “high polyreactivity”.

For “QVQLVESRGGLVQAGGSLRLSCAASGIIFQSYTMGWYRQAPGKERELVAAISTSGSTYYADSVKGRFTISRDNAKNTVYLQMNSLKPEDTAVYYCATYRYRIWWWGEYDYWGQGTQVTVSS”, the “polyreactivity (PSR sort gate)” value is given as “high polyreactivity”.

Take “QVQLVESRGGLVQAGGSLRLSCAASGNTFYGYAMGWYRPAPGKERELVASITLSGDSTYYADSVKGRFTISRDNAKNTVYLQMNSLKPEDTAVYYCAGVYTYPLGYYHYTYDYWGQGTQVTVSS”: the “polyreactivity (PSR sort gate)” value is given as “low polyreactivity”.

In the case of “QVQLVESRGGLVQAGGSLRLSCAASGPTFRNTAMGWSRQAPGKDREFVAVISNTGGSTYYADSVKGRFTISRDNAKNTVYLQMNSLKAEDTAVYYCGVRPRYSQYYYWGQGTQVTVSS”, the “polyreactivity (PSR sort gate)” value is “high polyreactivity”.

Consider “QVQLVESRGGLVQAGGSLRLSCAASGRIFGLYAMGWYRQAPGKERELVAAYADSVKGRFTISRDNAKNTVYLKMNCLKPEDTAVYYCAKGPLYAGYSIDLRDFNYWGQGTQVNVSS”, for which the “polyreactivity (PSR sort gate)” value is given as “low polyreactivity”.

Take “QVQLVESRGGLVQAGGSLRLSCAASGRIFGTNAMGWYRQAPGRERELVATITRGGGNTYYADSVKGRFTISRDIAKNTVYLQMNSLKPEDTAVYYCAAKFHRFAWYSHYDYWGHGTQVTVSS”: the “polyreactivity (PSR sort gate)” value is recorded as “low polyreactivity”.

“QVQLVESRGGLVQAGGSLRLSCAASGRIFHYYVMGWYRQAPGKERELVARITFNGGGTYYADSVKGRFTISRDIAKNTVYLQMNRLKPEDTAVYYCNARYPWRDWEDDYWGQGTQVTVSS”: the “polyreactivity (PSR sort gate)” value is “low polyreactivity”.

For the sequence “QVQLVESRGGLVQAGGSLRLSCAASGRIILIYAMGWYRQAPGKERELVGDISKGGSSTYYADSVKGRVTISRDNAQNTVYLQMNSLKPEDTAVYYCAASGRWTGRQAAYDYWGQGTQVTVSS”, the “polyreactivity (PSR sort gate)” value is recorded as “high polyreactivity”.

As for “QVQLVESRGGLVQAGGSLRLSCAASGRIIPSYMGWYRQAPGKQRELVARISNTGSTYYADSVKGRFTISRDNAKNTVYLQMNRLKPEDTAVYYCAAVYIFRVFSHPPYDYWGQGTQVTVST”, the “polyreactivity (PSR sort gate)” value is “low polyreactivity”.

As for “QVQLVESRGGLVQAGGSLRLSCAASGRIYSVYDMGWYRQAPGKESEFVAAIRSSGDSTYYADSVKGRFTISRDNAKNTVYLQMNSLKPDDTAVYYCAADVYRYRVRGLNYWGQGTQVTVSS”, the “polyreactivity (PSR sort gate)” value is “high polyreactivity”.

Take “QVQLVESRGGLVQAGGSLRLSCAASGRLFYSYAMGWNRQEPGKEREFVAAISRSGARTYYADSVKGRFTISRDNAKNTVYLQMNSLKPEDTAVYYCAADDFSTVEYDYWGQGTQVTVSS”: the “polyreactivity (PSR sort gate)” value is “low polyreactivity”.

For the sequence “QVQLVESRGGLVQAGGSLRLSCAASGRTFLGYAMGWYRQAPGKERELVAAISYSGSSTYYADSVKGRFTISRDNAKNTVYLQMNSLKPEDTAVYYCAAQFYFLFDYWGQGTQVTVSS”, the “polyreactivity (PSR sort gate)” value is recorded as “low polyreactivity”.

In the case of “QVQLVESRGGLVQAGGSLRLSCAASGSICYRYAMGWYRQAPGKERELVAAISYSGGSTYYADSVKGRFTISRDNAKNTVYLQMKSLKPEDTAVYYCAKDYPPPISDYSRYYGYGYWGQGTQVTVSS”, the “polyreactivity (PSR sort gate)” value is listed as “low polyreactivity”.

On to “QVQLVESRGGLVQAGGSLRLSCAASGSIFPYNAMGWYRQAPGKEREFVAAINLSGGSTNYADSVKGRFTISRDNAKNTVYLQMNSLKPEDTAVYYCNAPVDYFWPLNFDYWGQGTQVTVSS”, for which the “polyreactivity (PSR sort gate)” value is “low polyreactivity”.

For the sequence “QVQLVESRGGLVQAGGSLRLSCAASGSIFYRYAMGWYRPAPWKERELVAAIRRGGSTNYADSVKGRFTISRDNAKNTVYLQMNSLKPEDTAVYYCAAGRFTYAAQRYEYWGQGTQVTVSS”, the “polyreactivity (PSR sort gate)” value is given as “high polyreactivity”.
